{
  "source": "the supplement of paper PMC10567573",
  "parents": {"B1": {"name": "ZNF449 (parent)", "chain": "HKKKSPGEKPHRCPQCGKCFARKS"}},
  "data": [
    {"variants_of": "B1", "assay": "protein stability index of a GFP-peptide fusion (GPS, HEK-293T) (PSI 1-6); higher = more stable", "settings": "c terminus: a fixed tail appended", "values": [
      {"variant": "HKKKSPGEKPHRHPQCGKCFARKS", "note": "[C13H]", "protein stability index": 4.07},
      {"variant": "HKKKSPGEKPHRTPQCGKCFARKS", "note": "[C13T]", "protein stability index": 4.67},
      {"variant": "HKKKSPGEKPHRDPQCGKCFARKS", "note": "[C13D]", "protein stability index": 4.36},
      {"variant": "HKKKSPGEKPHRQPQCGKCFARKS", "note": "[C13Q]", "protein stability index": 3.88},
      {"variant": "HKKKSPGEKPHREPQCGKCFARKS", "note": "[C13E]", "protein stability index": 4.34},
      {"variant": "HKKKSPGEKPHRWPQCGKCFARKS", "note": "[C13W]", "protein stability index": 3.15},
      {"variant": "HKKKSPGEKPHRCPQCGKCFARSS", "note": "[K23S]", "protein stability index": 2.03},
      {"variant": "HKKKSPGEKPHRCPQCGKCFARES", "note": "[K23E]", "protein stability index": 2.5},
      {"variant": "HKKKSPGEKPHRCPQCGKCFARFS", "note": "[K23F]", "protein stability index": 1.75},
      {"variant": "HKKKSPGEKPHRCPQCGKCFARWS", "note": "[K23W]", "protein stability index": 2.68},
      {"variant": "HKKKSPGEKPHRCPQCGKCFARIS", "note": "[K23I]", "protein stability index": 2.09},
      {"variant": "HKKKSPGEKPHRCPQCGKCFARLS", "note": "[K23L]", "protein stability index": 2.04},
      {"variant": "HKKKSPGEKPHRCPQCGKCFARDS", "note": "[K23D]", "protein stability index": 3.57},
      {"variant": "HKKKSPGEKPHRCPQCGKCFARRS", "note": "[K23R]", "protein stability index": 3.3},
      {"variant": "HKKKSPGEKPHRCPQCGKCFARPS", "note": "[K23P]", "protein stability index": 2.43},
      {"variant": "HKKKSPGEKPHRCPQCGKCFARYS", "note": "[K23Y]", "protein stability index": 3.12},
      {"variant": "HKKKSPGEKPHRCPQCGKCFARGS", "note": "[K23G]", "protein stability index": 3.12},
      {"variant": "HKKKSPGEKPHRCPQCGKCFARNS", "note": "[K23N]", "protein stability index": 2.72},
      {"variant": "HKKKSPGEKKHRCPQCGKCFARKS", "note": "[P10K]", "protein stability index": 4.63},
      {"variant": "HKKKSPGEKMHRCPQCGKCFARKS", "note": "[P10M]", "protein stability index": 4.07},
      {"variant": "HKKKSPGEKQHRCPQCGKCFARKS", "note": "[P10Q]", "protein stability index": 3.09},
      {"variant": "HKKKSPGEKTHRCPQCGKCFARKS", "note": "[P10T]", "protein stability index": 3.83},
      {"variant": "HKKKSPGEKNHRCPQCGKCFARKS", "note": "[P10N]", "protein stability index": 3.3},
      {"variant": "HKKKSPGEKCHRCPQCGKCFARKS", "note": "[P10C]", "protein stability index": 2.56},
      {"variant": "HKKKSPGEKDHRCPQCGKCFARKS", "note": "[P10D]", "protein stability index": 3.74},
      {"variant": "HKKKSPGEKAHRCPQCGKCFARKS", "note": "[P10A]", "protein stability index": 4.54},
      {"variant": "HKKKSPGEKFHRCPQCGKCFARKS", "note": "[P10F]", "protein stability index": 3.15},
      {"variant": "HKKKSPGEKSHRCPQCGKCFARKS", "note": "[P10S]", "protein stability index": 3.86},
      {"variant": "HKKKSPGEKLHRCPQCGKCFARKS", "note": "[P10L]", "protein stability index": 4.06},
      {"variant": "HKKKSPGEKVHRCPQCGKCFARKS", "note": "[P10V]", "protein stability index": 3.65},
      {"variant": "HKKKSPGEKRHRCPQCGKCFARKS", "note": "[P10R]", "protein stability index": 3.31},
      {"variant": "HKKKSPGEKIHRCPQCGKCFARKS", "note": "[P10I]", "protein stability index": 3.58},
      {"variant": "HKKKSPGEKEHRCPQCGKCFARKS", "note": "[P10E]", "protein stability index": 3.52},
      {"variant": "HKKKSPGEKPRRCPQCGKCFARKS", "note": "[H11R]", "protein stability index": 3.08},
      {"variant": "HKKKSPGEKPMRCPQCGKCFARKS", "note": "[H11M]", "protein stability index": 3.18},
      {"variant": "HKKKSPGEKPCRCPQCGKCFARKS", "note": "[H11C]", "protein stability index": 4.53},
      {"variant": "HKKKSPGEKPARCPQCGKCFARKS", "note": "[H11A]", "protein stability index": 3.42},
      {"variant": "HKKKSPGEKPWRCPQCGKCFARKS", "note": "[H11W]", "protein stability index": 3.54},
      {"variant": "HKKKSPGEKPLRCPQCGKCFARKS", "note": "[H11L]", "protein stability index": 3.19},
      {"variant": "HKKKSPGEKPGRCPQCGKCFARKS", "note": "[H11G]", "protein stability index": 3.57},
      {"variant": "HKKKSPGEKPKRCPQCGKCFARKS", "note": "[H11K]", "protein stability index": 3.28},
      {"variant": "HKKKSPGEKPNRCPQCGKCFARKS", "note": "[H11N]", "protein stability index": 3.41},
      {"variant": "HKKKSPGEKPTRCPQCGKCFARKS", "note": "[H11T]", "protein stability index": 3.49},
      {"variant": "HKKKSPGEKPERCPQCGKCFARKS", "note": "[H11E]", "protein stability index": 4.17},
      {"variant": "HKKKSPGEKPYRCPQCGKCFARKS", "note": "[H11Y]", "protein stability index": 3.02},
      {"variant": "HKKKSPGEKPDRCPQCGKCFARKS", "note": "[H11D]", "protein stability index": 3.21},
      {"variant": "HKKKSPGEKPHRCPQCGKCFTRKS", "note": "[A21T]", "protein stability index": 3.69},
      {"variant": "HKKKSPGEKPHRCPQCGKCFIRKS", "note": "[A21I]", "protein stability index": 2.92},
      {"variant": "HKKKSPGEKPHRCPQCGKCFDRKS", "note": "[A21D]", "protein stability index": 3.51},
      {"variant": "HKKKSPGEKPHRCPQCGKCFLRKS", "note": "[A21L]", "protein stability index": 3.26},
      {"variant": "HKKKSPGEKPHRCPQCGKCFCRKS", "note": "[A21C]", "protein stability index": 2.66},
      {"variant": "HKKKSPGEKPHRCPQCGKCFYRKS", "note": "[A21Y]", "protein stability index": 3.27},
      {"variant": "HKKKSPGEKPHRCPQCGKCFVRKS", "note": "[A21V]", "protein stability index": 4.04},
      {"variant": "HKKKSPGEKPHRCPQCGKCFKRKS", "note": "[A21K]", "protein stability index": 3.99},
      {"variant": "HKKKSPGEKPHRCPICGKCFARKS", "note": "[Q15I]", "protein stability index": 3.45},
      {"variant": "HKKKSPGEKPHRCPECGKCFARKS", "note": "[Q15E]", "protein stability index": 3.38},
      {"variant": "HKKKSPGEKPHRCPWCGKCFARKS", "note": "[Q15W]", "protein stability index": 3.45},
      {"variant": "HKKKSPGEKPHRCPKCGKCFARKS", "note": "[Q15K]", "protein stability index": 3.25},
      {"variant": "HKKKSPGEKPHRCPHCGKCFARKS", "note": "[Q15H]", "protein stability index": 3.24},
      {"variant": "HKKKSPGEKPHRCPYCGKCFARKS", "note": "[Q15Y]", "protein stability index": 3.6},
      {"variant": "HKKKSPGEKPHRCPMCGKCFARKS", "note": "[Q15M]", "protein stability index": 3.95},
      {"variant": "HKKKSPGEKPHRCPFCGKCFARKS", "note": "[Q15F]", "protein stability index": 3.19},
      {"variant": "HKKKSPGEKPHWCPQCGKCFARKS", "note": "[R12W]", "protein stability index": 2.68},
      {"variant": "HKKKSPGEKPHPCPQCGKCFARKS", "note": "[R12P]", "protein stability index": 2.74},
      {"variant": "HKKKSPGEKPHSCPQCGKCFARKS", "note": "[R12S]", "protein stability index": 4.11},
      {"variant": "HKKKSPGEKPHQCPQCGKCFARKS", "note": "[R12Q]", "protein stability index": 3.19},
      {"variant": "HKKKSPGEKPHKCPQCGKCFARKS", "note": "[R12K]", "protein stability index": 3.98},
      {"variant": "HKKKSPGEKPHGCPQCGKCFARKS", "note": "[R12G]", "protein stability index": 3.1},
      {"variant": "HKKKSPGEKPHLCPQCGKCFARKS", "note": "[R12L]", "protein stability index": 3.85},
      {"variant": "HKKKSPGEKPHNCPQCGKCFARKS", "note": "[R12N]", "protein stability index": 3.92},
      {"variant": "HKKKSPGEKPHYCPQCGKCFARKS", "note": "[R12Y]", "protein stability index": 3.3},
      {"variant": "HKKKSPGEKPHFCPQCGKCFARKS", "note": "[R12F]", "protein stability index": 2.56},
      {"variant": "HKKKSPGEKPHHCPQCGKCFARKS", "note": "[R12H]", "protein stability index": 3.59},
      {"variant": "HKKKSPGEKPHTCPQCGKCFARKS", "note": "[R12T]", "protein stability index": 2.74},
      {"variant": "HKKKSPGEKPHRCPQCGKCFAVKS", "note": "[R22V]", "protein stability index": 3.15},
      {"variant": "HKKKSPGEKPHRCPQCGKCFATKS", "note": "[R22T]", "protein stability index": 4.06},
      {"variant": "HKKKSPGEKPHRCPQCGKCFALKS", "note": "[R22L]", "protein stability index": 3.64},
      {"variant": "HKKKSPGEKPHRCPQCGKCFAKKS", "note": "[R22K]", "protein stability index": 3.83},
      {"variant": "HKKKSPGEKPHRCPQCGKCFADKS", "note": "[R22D]", "protein stability index": 3.82},
      {"variant": "HKKKSPGEKPHRCPQCGKCFASKS", "note": "[R22S]", "protein stability index": 2.92},
      {"variant": "HKKKSPGEKPHRCPQCGKCFAHKS", "note": "[R22H]", "protein stability index": 3.83},
      {"variant": "HKKKSPGEKPHRCPQCGKCFAMKS", "note": "[R22M]", "protein stability index": 3.33},
      {"variant": "HKKKSPGEKPHRCPQCGKCFAGKS", "note": "[R22G]", "protein stability index": 3.46},
      {"variant": "HKKKSPGEKPHRCPQCGKCFANKS", "note": "[R22N]", "protein stability index": 3.45},
      {"variant": "HKKKSPGEKPHRCPQCGKCFAQKS", "note": "[R22Q]", "protein stability index": 3.78},
      {"variant": "HKKKSPGEKPHRCPQCGKCFARKD", "note": "[S24D]", "protein stability index": 3.97},
      {"variant": "HKKKSPGEKPHRCPQCGKCFARKK", "note": "[S24K]", "protein stability index": 3.99},
      {"variant": "HKKKSPGEKPHRCPQCGKCFARKF", "note": "[S24F]", "protein stability index": 1.99},
      {"variant": "HKKKSPGEKPHRCPQCGKCFARKC", "note": "[S24C]", "protein stability index": 3.82},
      {"variant": "HKKKSPGEKPHRCPQCGKCFARKV", "note": "[S24V]", "protein stability index": 1.78},
      {"variant": "HKKKSPGEKPHRCPQCGKCFARKW", "note": "[S24W]", "protein stability index": 2},
      {"variant": "HKKKSPGEKPHRCPQCGKCFARKI", "note": "[S24I]", "protein stability index": 3.32},
      {"variant": "HKKKSPGEKPHRCPQCGKCFARKT", "note": "[S24T]", "protein stability index": 3.8},
      {"variant": "HKKKSPGEKPHRCPQCGKCFARKP", "note": "[S24P]", "protein stability index": 3.76}
    ]}
  ]
}
